According to article PMC12753876 (2025):

B1: CRY1^(PHR WT) in pGADT7 (AD) [Arabidopsis thaliana] / HsFA3^WT in pGBKT7 (BD) [Arabidopsis thaliana] (parent complex)
chain 1: MSGSVSGCGSGGCSIVWFRRDLRVEDNPALAAAVRAGPVIALFVWAPEEEGHYHPGRVSRWWLKNSLAQLDSSLRSLGTCLITKRSTDSVASLLDVVKSTGASQIFFNHLYDPLSLVRDHRAKDVLTAQGIAVRSFNADLLYEPWEVTDELGRPFSMFAAFWERCLSMPYDPESPLLPPKKIISGDVSKCVADPLVFEDDSEKGSNALLARAWSPGWSNGDKALTTFINGPLLEYSKNRRKADSATTSFLSPHLHFGEVSVRKVFHLVRIKQVAWANEGNEAGEESVNLFLKSIGLREYSRYISFNHPYSHERPLLGHLKFFPWAVDENYFKAWRQGRTGYPLVDAGMRELWATGWLHDRIRVVVSSFFVKVLQLPWRWGMKYFWDTLLDADLESDALGWQYITGTLPDSREFDRIDNPQFEGYKFDPNGEYVRRWLPELSRLPTDWIHHPWNAPESVLQAAGIELGSNYPLPIVGLDEAKARLHEALSQMWQLEAASRAAIENGSEE
chain 2: not shown

Variants of: B1
Experiment: yeast two-hybrid (beta-galactosidase, Miller units); n=3; parent: 280; read off a plot

Row | response [Miller Units] | Variant
1 | ~300 | chain 1 K332A, chain 1 R335A

Variants of: B1
Experiment: as above
Remark: another data set of the same source

Row | response [Miller Units] | Variant
2 | ~210 | chain 1 R335E
3 | ~210 | chain 1 K332E
4 | ~280 | chain 1 K332E, chain 1 R335E

Variants of: B1
Experiment: as above
Remark: another data set of the same source

Row | response [Miller Units] | Variant
5 | ~150 | chain 1 R211A, chain 1 R435A
